Earlier results in PMC2723763.

Target: ZPI (Homo sapiens) (UniProt Q9UK55)
UniProt Q9UK55, sequence (Q9UK55 22-444): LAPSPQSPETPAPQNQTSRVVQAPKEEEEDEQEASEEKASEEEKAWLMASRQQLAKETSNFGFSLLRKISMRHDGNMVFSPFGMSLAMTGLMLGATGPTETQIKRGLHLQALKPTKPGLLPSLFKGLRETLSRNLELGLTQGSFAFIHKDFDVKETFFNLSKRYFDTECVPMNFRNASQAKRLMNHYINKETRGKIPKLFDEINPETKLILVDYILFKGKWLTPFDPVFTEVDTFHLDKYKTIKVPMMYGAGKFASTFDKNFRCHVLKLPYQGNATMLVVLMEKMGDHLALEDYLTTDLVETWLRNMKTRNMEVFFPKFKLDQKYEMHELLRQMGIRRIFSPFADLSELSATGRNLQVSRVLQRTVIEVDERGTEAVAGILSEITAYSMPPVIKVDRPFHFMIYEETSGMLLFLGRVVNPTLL

protein Z (from UniProt P22891)
Kd: 7 nM
